Measured values reported in patent publication US8153134.

Target: human MDL-1 (human) (UniProt Q9NY25)
Test: cell-based or functional assay

human MDL-1 (human), sequence (Q9NY25 whole entry): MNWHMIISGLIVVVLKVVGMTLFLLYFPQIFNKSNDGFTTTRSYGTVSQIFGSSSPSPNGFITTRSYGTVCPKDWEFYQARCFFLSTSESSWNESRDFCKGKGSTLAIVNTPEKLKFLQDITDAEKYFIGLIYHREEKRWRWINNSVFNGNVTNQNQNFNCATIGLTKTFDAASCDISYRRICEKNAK

secreted beta-hexosaminidase, OD (405-570), DT808 mouse mast cells, cross-link: 0.065 OD (405-570)
secreted beta-hexosaminidase, OD (405-570), DT808 mouse mast cells, no cross-link: 0.1 OD (405-570)
Substance: rat isotype control mAb (rIgG1) (antibody)
